What is called stoichiometry N is a count of units in the complex or per binding partner.

Data set [1] concerns the target T1, Rv1019 (TetR family regulator) (Mycobacterium tuberculosis H37Rv) (UniProt P96381).
T1 sequence: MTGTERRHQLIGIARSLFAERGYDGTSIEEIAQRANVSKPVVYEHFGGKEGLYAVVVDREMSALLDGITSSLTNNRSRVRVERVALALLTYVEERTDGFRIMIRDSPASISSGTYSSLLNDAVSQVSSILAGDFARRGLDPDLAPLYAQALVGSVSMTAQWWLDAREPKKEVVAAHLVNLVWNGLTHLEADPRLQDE
The experiment in a line: EMSA.

The target of data set [2] is Rv1019, putative TetR family transcriptional regulator of Mycobacterium tuberculosis H37Rv (Mycobacterium tuberculosis H37Rv). Put plainly: cross-linking.
Data set [3] has the same target. The experiment in a line: native gel or EMSA.
Data set [4] concerns the target T2, Rv1019 (TetR family regulator) (Mycobacterium tuberculosis H37Rv, UniProt P96381 1-197).
T2 sequence: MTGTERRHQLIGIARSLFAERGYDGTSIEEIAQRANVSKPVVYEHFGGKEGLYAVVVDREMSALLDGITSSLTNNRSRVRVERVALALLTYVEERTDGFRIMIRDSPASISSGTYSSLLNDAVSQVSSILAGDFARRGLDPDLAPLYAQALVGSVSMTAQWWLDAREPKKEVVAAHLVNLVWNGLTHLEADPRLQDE
Put plainly: EMSA. Background: Mobility shift assays separate free from complexed probe on a gel.

Data set [5] deals with T2, Rv1019 (TetR family regulator). Put plainly: EMSA. This is another data set of the same source.

Read-outs that look alike come from different tables or passages of the source.

Consider “CCTGGCGCGCGTCACCCGCGTCGGGTTTTCCGGCGCCTTATCCGGCCCTTTATCCGGTCCGGCCACATCAACAAGGGTATCGGTTTGCGTGGGGCCGGTGGGTAGACGGCGACAGCGTTGACTGTGCTGACGGCGTTGACACCGTCTAAAGTCACATCGATGTGCAATCCGTCGTGGTGTAATCGGCAGCACCTCTGATTTTGGTTCAGATAGTTCAGGTTCGAGTCCTGGCGACGGAGCTTCAAGGAGGGTTGATGACGTTTCCTGGTGACACCGCGGTCCTGGTCCTAGCGGCCGGGC (double strand) [Fragment I, Rv1019 upstream -300 to -1]”, for which the binding result in data set [1] is given as “binds”.
As for “Rv1019, putative TetR family transcriptional regulator of Mycobacterium tuberculosis H37Rv (natural protein)”, the stoichiometry N in data set [2] and in data set [3] was 2 each time.

B1: Rv1019 18 bp inverted repeat (Palindrome Oligo S1/S2) (dsDNA)
DNA 1: TGACTTTAGACGGTGTCAACGCCGTCAGCACAGT
DNA 2: ACTGTGCTGACGGCGTTGACACCGTCTAAAGTCA
Regarding B1, the binding result in data set [4] is recorded as “binds”.

B2: M. smegmatis cognate site (MS Pal S1/S2) (dsDNA)
DNA 1: GGCTTGACGTGCGCGAACCGTCGAAAG
DNA 2: CTTTCGACGGTTCGCGCACGTCAAGCC
With B2, the binding result in data set [5] is “binds”.

The values are drawn from article doi:10.1101/2020.02.10.941963.
